One data set addresses T1, recombinant Dicer enzyme (Homo sapiens, UniProt Q9UPY3).
T1 construct: purchased Genlantis
Kind of data set: Digestion with recombinant Dicer enzyme, siRNA release. Type of data set: biochemical. The conditions noted are these: 1 μg pRNA nanoparticles, 37° C., 12 h. How it is done: FIG. 7A) Six HER2-targeting RNA aptamers were selected from previous literatures, and their secondary structures were predicted using Srna-fold software. FIG. 7B) Six p2 strands containing the six different HER2 RNA aptamers were synthesized and annealed with the same p1 strand to generate six different pRNA-HER2apt-MED1 siRNA nanoparticles, respectively, followed by examination using 8% native PAGE gel electrophoresis. FIG. 7C) BT474 cells were treated with above pRNA nanoparticles for 48 h, and then MED1 protein level was determined by western blotting. […] FIG. 7D) 1 μg pRNA nanoparticles were incubated with recombinant Dicer enzyme (Genlantis) at 37° C. for 12 h, the product was separated by 8% native PAGE gel.
Next, the pRNA nanoparticles were digested with recombinant Dicer enzyme (Genlantis) ^34 to confirm the release of siRNAs as indicated by the generation of 21-23 bp small RNAs after digestion (FIG. 7D).

For another data set, the system named is MED1. Kind of data set: MED1 protein level by western blots in MCF-7/HER2 cells. Type of data set: cell-based, human. The conditions noted are these: MCF-7/HER2, 10 μg/mL, 48 h. How it is done:
FIGS. 10A-10D. Evidence that pRNA-HER2apt-siMED1 nanoparticles silenced MED1 expression and sensitized two other HER2+ breast cancer cells to tamoxifen treatment. FIG. 10A) Two HER2-overexpressing breast cancer cell lines MCF7/TAM and FIG. 10B) MCF7/HER2, were treated with 10 μg/mL pRNA-HER2apt-siMED1 nanoparticles or scramble control for 48 h, and then MED1 protein level was determined using western blots. FIG. 10C) MCF7/TAM and FIG. 10D) MCF7/HER2 cells were treated with 10 μg/mL pRNA nanoparticles and/or 1 μM tamoxifen (TAM) as indicated for 48 h, and then cell growth was determined using an MTT assay.
Next, the ability of pRNA-HER2apt-siMED1 nanoparticles to silence the expression of MED1 in BT474 and MDA-MB-231 human breast cancer cells was examined. Using real-time PCR analyses, a significant depletion of nearly 70% of MED1 mRNA in BT474 cells after pRNA-HER2apt-siMED1 but not pRNA-HER2apt^mut-siMED1 treatment was found (FIG. 3A).

In data set [1] the test system is BT474 orthotopic xenograft tumors. The experiment in a line: Anti-tumor therapy in BT474 orthotopic xenograft breast tumor mouse model. Type of data set: in vivo, athymic nude mice. As to conditions: for tumor lung metastasis: H&E staining of whole lung. How it is done: FIG. 5A) BT474 orthotopic xenograft mouse models were treated with control pRNA-HER2apt-siScram or pRNA-HER2apt-siMED1 (4 mg/Kg) once a week, in combination with vehicle or tamoxifen (TAM, 0.5 mg/mice/day) 5 days per week. Tumor sizes were measured every three days. FIG. 5B) After three weeks, mice were i.p. injected with D-luciferin, and representative in vivo images of BT474 tumors were recorded using IVIS Lumina imaging system. FIG. 5C) Average weight of the tumors excised at the end of the treatment, and FIG. 5D) the representative photos of tumors. FIG. 5E and FIG. 5F) MED1 expression in the BT474 tumors was examined using IHC staining and FIG. 5G) immunoblotting. FIG. 5H) The expression of Ki-67 in tumor tissues was analyzed using IHC staining, and FIG. 5I) the percentage of Ki-67 positive cells was counted. Scale bar: 100 μm.
FIG. 6A) Whole lung tissues were fixed, embedded, and sectioned for H&E staining, and FIG. 6B) metastasis foci in the whole lung tissues were then counted. Arrow indicates the metastasis foci. Scale bar: 100 μm. FIG. 6C) After digesting tumor tissues with trypsin and 0.1% collagenase, tumor cells were stained for CD44 and CD24, and FIG. 6D) analyzed for CD44^+CD24^−/low stem cell population using flow cytometry. FIG. 6E) Total RNA in the tumor tissues was extracted using TRIZOL reagent, and the expression of TFF-1, FIG. 6F) c-Myc, FIG. 6G) cyclin D1, and FIG. 6H) MMP-9 were determined by real-time PCR.
Migration and metastasis assay. The 8-μm-pore-size polycarbonate membrane, which separates the two chambers of a 6.5-mm Transwell (Costar), was coated with or without 1:8 DMEM-diluted Matrigel (Corning). Transwell assay was performed as previously described.^57 Briefly, BT474 cells were treated with pRNAs alone or together with 4-hydroxy-tamoxifen (4-OHT) for 48 h and starved with serum-free DMEM containing 0.2% BSA overnight. On the next day, cells were collected and 2×10^5 cells were seeded to the upper chamber of Transwell. The lower chamber was filled with 600 μL DMEM medium containing 10% FBS. After incubation at 37° C. for 24 h, cells on the membranes were fixed and stained with 0.1% crystal violet in 20% ethanol solution. Cells at top side of membranes were removed completely, and cells at the bottom side were examined with an Olympus SZX12 microscope and counted. • Mammosphere culture and breast cancer stem cell analyses. BT474 cells were treated with pRNAs for 48 h. Then, cells were suspended in DMEM/F12 medium supplemented with 1×B27 (Thermo Fisher), 20 ng/mL bFGF and 20 ng/mL EGF (R&D), and added into 24-well ultralow attachment plates. After treatment with or without 1 μM 4-OHT for 7 days, mammosphere formation was recorded using an Axiovert S100 TV inverted microscope (Zeiss). Xenograft tumor tissues were cut into small pieces and digested with trypsin and collagenase at 37° C. for 1 h, and tumor cells were collected and rinsed with pre-cold PBS. All cells were stained with FITC-conjugated anti-CD44 antibody and PE-conjugated anti-CD24 antibody (BD Pharmingen) in the dark on ice for 30 min. After resuspension with 0.5 mL PBS buffer, CD44^+/CD24^−/low cell population was analyzed by flow cytometry. • Orthotopic xenograft breast tumor mouse model, in vivo imaging and anti-tumor therapy. Six-week-old female athymic nude mice were purchased from Charles River Laboratories, and all animal procedures were performed under IACUC-approved protocols at the University of Cincinnati. Athymic nude mice were orthotopically injected with 1×10^7 BT474-luc cells mixed with matrigel into the fat pads of the forth pair of mammary glands. When the tumor sizes reached 100-150 mm^3, the mice were randomly divided into four groups (4/group) and intravenously (i.v.) injected with pRNAs (4 mg/Kg) once a week for three weeks. For tamoxifen treatments, 0.5 mg tamoxifen (Sigma) dissolved in sesame oil was intraperitoneally (i.p.) injected into mice 5 days a week for three weeks. […]

T1 sequence (Q9UPY3 whole entry): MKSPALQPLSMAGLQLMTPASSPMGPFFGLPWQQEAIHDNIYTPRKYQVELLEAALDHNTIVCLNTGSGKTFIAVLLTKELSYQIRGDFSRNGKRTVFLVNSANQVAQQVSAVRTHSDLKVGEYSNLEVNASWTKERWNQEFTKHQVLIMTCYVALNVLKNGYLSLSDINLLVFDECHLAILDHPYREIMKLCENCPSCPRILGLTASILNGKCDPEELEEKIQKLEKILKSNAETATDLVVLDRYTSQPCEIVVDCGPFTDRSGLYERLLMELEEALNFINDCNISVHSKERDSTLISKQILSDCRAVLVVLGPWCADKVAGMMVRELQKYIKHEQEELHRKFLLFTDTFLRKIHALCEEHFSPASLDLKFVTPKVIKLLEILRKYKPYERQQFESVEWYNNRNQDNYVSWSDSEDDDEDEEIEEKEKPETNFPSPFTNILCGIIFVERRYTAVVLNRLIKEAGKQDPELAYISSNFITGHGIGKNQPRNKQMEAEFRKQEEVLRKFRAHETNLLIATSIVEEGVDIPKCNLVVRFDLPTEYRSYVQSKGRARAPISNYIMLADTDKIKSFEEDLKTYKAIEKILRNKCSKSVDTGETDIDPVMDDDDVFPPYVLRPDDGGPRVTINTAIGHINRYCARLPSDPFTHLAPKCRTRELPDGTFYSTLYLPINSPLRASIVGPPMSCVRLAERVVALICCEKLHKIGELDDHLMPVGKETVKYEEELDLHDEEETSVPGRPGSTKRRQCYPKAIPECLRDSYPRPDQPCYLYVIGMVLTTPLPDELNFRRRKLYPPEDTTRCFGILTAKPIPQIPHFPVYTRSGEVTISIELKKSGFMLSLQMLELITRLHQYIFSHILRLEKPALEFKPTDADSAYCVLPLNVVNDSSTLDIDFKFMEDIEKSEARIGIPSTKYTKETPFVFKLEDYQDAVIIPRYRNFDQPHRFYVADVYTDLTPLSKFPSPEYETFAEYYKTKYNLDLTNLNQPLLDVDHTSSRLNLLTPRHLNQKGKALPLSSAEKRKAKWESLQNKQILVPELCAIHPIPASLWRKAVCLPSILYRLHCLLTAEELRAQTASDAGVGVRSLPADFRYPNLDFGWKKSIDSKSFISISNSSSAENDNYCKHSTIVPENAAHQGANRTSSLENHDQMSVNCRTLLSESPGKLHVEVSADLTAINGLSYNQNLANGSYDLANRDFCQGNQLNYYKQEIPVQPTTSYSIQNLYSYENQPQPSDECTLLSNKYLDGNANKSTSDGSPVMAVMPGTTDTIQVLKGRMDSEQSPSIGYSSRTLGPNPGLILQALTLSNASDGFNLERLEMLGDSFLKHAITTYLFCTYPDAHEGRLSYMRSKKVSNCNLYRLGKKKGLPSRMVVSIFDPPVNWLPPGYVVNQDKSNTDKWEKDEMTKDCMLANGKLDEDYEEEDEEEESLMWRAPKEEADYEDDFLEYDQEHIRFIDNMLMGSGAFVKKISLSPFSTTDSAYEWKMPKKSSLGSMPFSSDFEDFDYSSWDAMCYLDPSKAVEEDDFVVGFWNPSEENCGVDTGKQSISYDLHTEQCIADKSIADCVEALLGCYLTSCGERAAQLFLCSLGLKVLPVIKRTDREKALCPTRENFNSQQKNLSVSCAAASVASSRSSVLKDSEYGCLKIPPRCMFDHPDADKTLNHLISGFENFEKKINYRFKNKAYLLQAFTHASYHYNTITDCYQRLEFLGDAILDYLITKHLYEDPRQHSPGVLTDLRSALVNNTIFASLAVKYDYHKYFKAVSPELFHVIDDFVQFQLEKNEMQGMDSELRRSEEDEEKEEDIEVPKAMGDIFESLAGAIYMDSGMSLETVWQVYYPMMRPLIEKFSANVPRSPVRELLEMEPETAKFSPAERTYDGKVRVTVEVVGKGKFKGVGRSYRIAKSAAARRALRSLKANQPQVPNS

B1: pRNA-HER2apt-siMED1: 3-WJ pRNA nanoparticle bearing a HER2-targeting RNA aptamer and two different MED1 siRNAs; strands p1 SEQ ID NO: 3, p2 SEQ ID NO: 4 (nucleic acid)
chain 1: GGACAGUGAAAGUGAGUCAAAGGAUCAAUCAUGGCCAAAGAUGUUACUUUGAGAGCCUU
chain 2: GGCUCUCAAAGUAACAUCUAAGGCCAUGUGUAUGUGGGGGGAGGACGAUGCGGUCUGCUGUGCUUGAUAUGCCCCAGACGACUCGCCCCCCACAUACUUUGUUGAUCCAAUGACUCACUUUCACUGUCCUU
modifications: 2'-F modification; third strand may lack entry; pRNA-HER2apt-siMED1, p1; pRNA-HER2apt-siMED1, p2
In the case of B1, the “small RNAs generated after Dicer digestion (release of siRNAs)” value in the data set with recombinant Dicer enzyme was 21-23 bp. Also, the MED1 silencing entry in the data set on MED1 was “confirmed”. Besides, in data set [1] (IHC staining), the “Ki-67 expression in tumor sections” value is “dramatic reduction”. The “expression of MED1 in tumors” value in data set [1] (IHC staining and western blot of BT474 tumors) is “significantly depleted”. Besides, in data set [1] (combined with tamoxifen, flow cytometry), the “CD44^+CD24^−/low cancer stem cells in breast tumors” value was “almost complete depletion”. The tumor lung metastasis result in data set [1] (in combination with tamoxifen) and in data set [1] (single agent) was “totally eradicated” each time. For the same molecule, the tumor growth result was “almost completely suppressed tumor growth” in data set [1] (pRNA 4 mg/Kg i.v. once a week in combination with tamoxifen 0.5 mg i.p. 5 days a week, three weeks) and “significantly inhibited tumor growth” in data set [1] (single agent, pRNA 4 mg/Kg i.v. once a week or tamoxifen 0.5 mg i.p. 5 days a week, three weeks). In addition, in data set [1] (pRNA alone, 4 mg/Kg i.v. once a week, three weeks), the tumor burden result is recorded as “reduced tumor burden”. Moreover, the “CD44^+CD24^−/low cancer stem cells in the breast tumors” value in data set [1] (pRNA alone, flow cytometry) was “significantly reduced”.

Values taken from patent publication US11110182B2, “Multifunctional RNA nanoparticles and methods for treating cancer and therapeutic resistant cancer” (University of Cincinnati, priority 2016, dated 2021).
